From IntAct's records for PubMed 10523676

B1: DNA polymerase alpha catalytic subunit (Mus musculus), P33609 (parent)
chain: MAPMHEEDCKLEASAVSDSGSFAASRARREKKSKKGRQEALERLKKAKAGEKYKYEVEDLTSVYEEVDEEQYSKLVQARQDDDWIVDDDGIGYVEDGREIFDDDLEDDALDTCGKGSDGKAHRKDRKDVKKPSVTKPNNIKAMFIASAGKKTTDKAVDLSKDDLLGDILQDLNTETAQITPPPVLIPKKKRSTGALLNPFSVHTPKAIPSGKPASPVLRNEPLLTPIPLKRAELAGELAQPECPEDEQELGVMEFEDGDFDESMDTEKVDEKPVTAKTWDQETEPVERVEHEADPERGTTSYLENFLPDVSCWDIDQDDESIPQEVQVDSSNLPLVKGADDEQVFQFYWLDAYEDPYNQPGVVFLFGKVWIESVKTHVSCCVMVKNIERTLYFLPREMKFDLNTGKETAIPVTMKDVYEEFDSKISAKYKIMKFKSKIVEKNYAFEIPDVPEKSEYLEVRYSAEVPQLPQNLKGETFSHVFGTNTSSLELFLMNRKIKGPCWLEVKNPQLLNQPISWCKFEVMALKPDLVNVIKDVSPPPLVVMSFSMKTMQNVQNHQHEIIAMAALVHHSFALDKAPPEPPFQTHFCVVSKPKDCIFPCDFKEVISKKNMKVEIAATERTLIGFFLAKVHKIDPDILVGHNICSFELEVLLQRINECKVPYWSKIGRLRRSNMPKLGSRSGFGERNATCGRMICDVEISAKELIHCKSYHLSELVQQILKTERIVIPTENIRNMYSESSYLLYLLEHIWKDARFILQIMCELNVLPLALQITNIAGNIMSRTLMGGRSERNEFLLLHAFYENNYIVPDKQIFRKPQQKLGDEDEEIDGDTNKYKKGRKKATYAGGLVLDPKVGFYDKFILLLDFNSLYPSIIQEFNICFTTVQRVTSEVQKATEDEEQEQIPELPDPNLEMGILPREIRKLVERRKQVKQLMKQQDLNPDLVLQYDIRQKALKLTANSMYGCLGFSYSRFYAKPLAALVTYKGREILMHTKDMVQKMNLEVIYGDTDSIMINTNSTNLEEVFKLGNKVKSEVNKLYKLLEIDIDAVFKSLLLLKKKKYAALVVEPTSDGNYITKQELKGLDIVRRDWCDLAKDTGNFVIGQILSDQSRDTIVENIQKRLIEIGENVLNGSVPVSQFEINKALTKDPQDYPDRKSLPHVHVALWINSQGGRKVKAGDTVSYVICQDGSNLTATQRAYAPEQLQKLDNLAIDTQYYLAQQIHPVVARICEPIDGIDAVLIALWLGLDSTQFRVHQYHKDEENDALLGGPAQLTDEEKYKDCEKFKCLCPSCGTENIYDNVFEGSGLDMEPSLYRCSNVDCKVSPLTFMVQLSNKLIMDIRRCIKKYYDGWLICEEPTCCSRLRRLPLHFSRNGPLCPVCMKAVLRPEYSDKSLYTQLCFYRYIFDADCALEKLTEHEKDKLKKQFFPLRVLQDYRKVKNIAEQFLSWSGYSEVNLSKLFANYAGKS
partner: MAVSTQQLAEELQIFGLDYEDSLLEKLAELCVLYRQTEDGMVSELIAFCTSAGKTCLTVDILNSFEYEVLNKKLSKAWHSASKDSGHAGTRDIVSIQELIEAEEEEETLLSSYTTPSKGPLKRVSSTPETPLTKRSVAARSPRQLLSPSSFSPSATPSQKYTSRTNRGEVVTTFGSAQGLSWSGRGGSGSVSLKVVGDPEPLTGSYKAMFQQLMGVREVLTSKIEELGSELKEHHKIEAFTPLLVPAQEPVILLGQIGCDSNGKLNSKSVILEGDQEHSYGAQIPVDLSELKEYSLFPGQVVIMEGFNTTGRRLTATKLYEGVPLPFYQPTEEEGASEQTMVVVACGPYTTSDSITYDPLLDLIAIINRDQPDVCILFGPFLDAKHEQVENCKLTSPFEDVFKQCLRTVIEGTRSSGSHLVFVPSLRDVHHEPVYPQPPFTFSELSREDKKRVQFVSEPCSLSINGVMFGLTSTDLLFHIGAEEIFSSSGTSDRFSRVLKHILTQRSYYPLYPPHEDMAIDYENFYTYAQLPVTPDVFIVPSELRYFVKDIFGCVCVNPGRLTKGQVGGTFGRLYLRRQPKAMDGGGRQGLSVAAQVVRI

Variants of: B1
Details: with dpoa2_mouse Pola2, P33611

Row | effect of a mutation on the interaction | Variant
1 | decreasing interaction | C1375A;C1378A
2 | decreasing interaction | C1287A;C1290A
